In paper doi:10.1101/2020.01.12.903617, “The peptide sensor motif stabilizes the outward-facing conformation of TmrAB” (bioRxiv, 2020):
No end group written: not given here. fluorescein = fluorescein label attached to the Cys side chain

Biological target: T1, TmrAB D117A^TmrB (Thermus thermophilus, UniProt Q72J05 1-600; Q72J04 1-578, D117A)
T1 construct: TmrA, Thermus thermophilus, the chain of TmrAB with the canonical Walker B motif; TmrB, Thermus thermophilus, the chain of TmrAB with the non-canonical Walker B motif
T1 sequence 1: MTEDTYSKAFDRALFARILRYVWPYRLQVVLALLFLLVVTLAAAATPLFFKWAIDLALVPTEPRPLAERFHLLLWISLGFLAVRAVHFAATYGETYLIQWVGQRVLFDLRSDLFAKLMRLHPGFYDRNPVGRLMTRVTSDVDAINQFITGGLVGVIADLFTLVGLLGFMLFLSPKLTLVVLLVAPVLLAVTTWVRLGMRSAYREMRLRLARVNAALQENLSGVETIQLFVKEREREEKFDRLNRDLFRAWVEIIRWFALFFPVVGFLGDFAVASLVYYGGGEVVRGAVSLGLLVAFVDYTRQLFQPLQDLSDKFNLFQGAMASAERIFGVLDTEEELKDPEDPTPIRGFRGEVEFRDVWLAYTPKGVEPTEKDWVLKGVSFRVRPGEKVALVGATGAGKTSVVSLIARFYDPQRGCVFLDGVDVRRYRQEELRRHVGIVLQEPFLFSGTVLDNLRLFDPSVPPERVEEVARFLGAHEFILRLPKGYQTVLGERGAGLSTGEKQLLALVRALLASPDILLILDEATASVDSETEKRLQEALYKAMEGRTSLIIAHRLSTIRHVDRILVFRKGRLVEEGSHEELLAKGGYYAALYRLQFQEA
T1 sequence 2: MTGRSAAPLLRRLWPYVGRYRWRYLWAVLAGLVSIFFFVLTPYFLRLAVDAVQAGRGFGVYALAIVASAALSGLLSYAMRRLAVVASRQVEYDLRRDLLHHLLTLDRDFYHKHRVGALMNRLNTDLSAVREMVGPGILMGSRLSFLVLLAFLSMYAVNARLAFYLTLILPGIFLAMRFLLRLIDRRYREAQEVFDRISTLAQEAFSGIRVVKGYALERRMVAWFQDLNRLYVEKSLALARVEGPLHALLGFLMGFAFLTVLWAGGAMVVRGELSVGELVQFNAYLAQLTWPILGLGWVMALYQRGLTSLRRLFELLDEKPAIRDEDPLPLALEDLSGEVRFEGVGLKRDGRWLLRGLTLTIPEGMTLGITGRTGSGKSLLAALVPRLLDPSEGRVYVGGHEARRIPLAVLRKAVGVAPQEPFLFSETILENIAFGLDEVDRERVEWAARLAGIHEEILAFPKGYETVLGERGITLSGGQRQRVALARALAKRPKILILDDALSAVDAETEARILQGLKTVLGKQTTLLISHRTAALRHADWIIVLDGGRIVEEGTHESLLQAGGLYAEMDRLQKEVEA
Experiment: fluorescence polarisation; 1.7 uM TmrAB with 50 nM RRY(C^Fluorescein)KSTEL in SEC buffer (20 mM HEPES, 150 mM NaCl, pH 7, 0.05% ß-DDM), 15 minutes on ice, in the absence or presence of 5 mM ATP and 10 mM MgCl2; read at 25°C (the results say 4°C); signal normalized to WT without ATP
Conditions: both partners purified

B1: fluorescent transport substrate peptide RRY(C^Fluorescein)KSTEL (peptide)
peptide: RRYC(fluorescein)KSTEL
notes: fluorescein-labelled transport substrate peptide of TmrAB; also called fluorescently-labeled peptide substrate; peptide substrate; source: bought: Genscript
  binding result: binds
